Results taken from patent US12366576B2, “Compositions, assays, and methods for direct modulation of fatty acid metabolism” (Dana-Farber Cancer Institute, Inc., priority 2016, dated 2025).
Bridge positions count the residues as written; N and C are the ends. Square brackets hold non-standard residues; d marks the D form. Ends that are not written are not given here. S5 = C=CCCC[C@](C)(N)C(=O)O

Target: T1, VLCAD (Homo sapiens, UniProt P49748)
T1 construct: 10x His (N); made in house; host or cells: E. coli BL21(DE3), pET19b
T1 sequence (P49748 40-655): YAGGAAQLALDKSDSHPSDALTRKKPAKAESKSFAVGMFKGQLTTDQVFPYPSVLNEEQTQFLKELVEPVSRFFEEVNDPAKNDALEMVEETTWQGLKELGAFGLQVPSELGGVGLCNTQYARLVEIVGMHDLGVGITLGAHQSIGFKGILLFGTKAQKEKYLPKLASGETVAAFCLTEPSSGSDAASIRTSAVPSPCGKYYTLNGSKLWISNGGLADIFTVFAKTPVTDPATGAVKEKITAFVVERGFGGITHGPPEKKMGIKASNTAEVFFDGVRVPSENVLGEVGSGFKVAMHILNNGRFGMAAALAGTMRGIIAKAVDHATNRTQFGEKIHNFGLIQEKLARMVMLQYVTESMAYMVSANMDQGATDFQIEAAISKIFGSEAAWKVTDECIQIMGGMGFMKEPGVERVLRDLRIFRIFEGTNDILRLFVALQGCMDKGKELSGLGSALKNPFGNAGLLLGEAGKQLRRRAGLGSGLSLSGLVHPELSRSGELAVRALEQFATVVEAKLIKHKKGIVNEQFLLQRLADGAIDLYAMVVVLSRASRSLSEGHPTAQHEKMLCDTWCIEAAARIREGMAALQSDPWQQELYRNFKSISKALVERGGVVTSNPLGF
Test: In vitro VLCAD enzymatic activity assay (palmitoyl-CoA, ferrocenium hexafluorophosphate)
Assay type: biochemical
Conditions: 0.75 μM VLCAD pre-incubated overnight at 4° C. with 75 μM SAHB; substrate palmitoyl-CoA
Procedure: To assess whether the direct MCL-1/VLCAD binding interaction influences VLCAD enzymatic activity, an in vitro enzymatic activity assay was conducted. Recombinant VLCAD was incubated with its substrate (palmitoyl-CoA) and ferrocenium hexafluorophosphate, a strong electrophile. As VLCAD acts upon its substrate and oxidizes it, the ferrocenium hexafluorophosphate is reduced, causing a change in absorbance that is readily measured.
VLCAD. Mature human VLCAD lacking its cleavable leader sequence (aa 40-655) (NP_000009.1) was subcloned into the pET19b vector (Novagen) using NdeI and XhoI restriction sites. Correct insertion was confirmed by DNA sequencing. […]
VLCAD enzymatic activity was measured as previously described (see, e.g., Doulias et al., Sci Signal, 6(256):rs1 (2013); Lehman et al., Anal. Biochem., 186(2):280-284 (1990)). […] Where VLCAD activity was assessed in the presence of MCL-1 SAHBs, 0.75 μM VLCAD was incubated overnight at 4° C. with 75 μM SAHB and the protein-peptide mixture was used to initiate the ferrocenium reaction. Decrease in ferrocenium absorbance as a function of time at 300 nm was recorded and the initial velocity (V0) was calculated in units of U/mg using the molar absorptivity of ferrocenium (ε=4.3 mM^−1 cm^−1 at 300 nm) (see, e.g., Izai et al.). […]

Substance: MCL-1 SAHBD: hydrocarbon-stapled peptide mimicking the MCL-1 BH3 domain (Stabilized Alpha-Helix of BCL-2 Domain), SEQ ID NO:19 (RKALETLRRVGDGV[S5]RNH[S5]TAF; staple 15-19)
- effect on VLCAD enzymatic activity: caused a decrease in enzymatic activity
